The numbers were not newly measured in paper PMC7956452, which cites them from elsewhere.

The target of the data set is RNA polymerase II CTD phosphorylated heptapeptide (Homo sapiens).

The term Kd denotes the equilibrium constant for the complex coming apart. PQBP-1 (from UniProt O60828): the Kd is 154 µM.
